{"source": "patent US20170355757A1", "biological_target": "human C5aR1 (human) (UniProt P21730)", "sequence (P21730 whole entry)": "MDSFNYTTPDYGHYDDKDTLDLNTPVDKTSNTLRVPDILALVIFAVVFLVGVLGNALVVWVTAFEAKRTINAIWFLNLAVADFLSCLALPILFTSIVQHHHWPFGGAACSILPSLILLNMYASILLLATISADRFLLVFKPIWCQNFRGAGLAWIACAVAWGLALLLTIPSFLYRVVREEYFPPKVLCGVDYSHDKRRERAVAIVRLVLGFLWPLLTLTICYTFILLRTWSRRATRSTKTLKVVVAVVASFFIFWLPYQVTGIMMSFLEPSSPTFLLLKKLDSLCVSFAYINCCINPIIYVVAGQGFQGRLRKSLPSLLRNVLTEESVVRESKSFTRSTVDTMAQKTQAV", "test": "cell-based or functional assay", "data": [{"substance": "hC5a (from UniProt P01031 678-751) (ligand)", "values": [{"measurement": "EC50[M] hC5a, luciferase reporter in HEK293/Gα16/hC5aR1/NFAT-luc cells", "result": "3.9e-10", "unit": "M"}]}]}
